Test [1] has as its target T1, Human BCMA-IHM (human, UniProt Q02223 1-54, limits assumed).
T1 construct: any tag or fusion partner is unknown
T1 sequence (looked up): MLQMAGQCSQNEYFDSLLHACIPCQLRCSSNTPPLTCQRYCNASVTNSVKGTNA
Briefly: Biacore (SPR), Fab, human BCMA-IHM, monovalent. A general note: SPR reads the build-up and loss of mass on a sensor chip optically.

Test [2] addresses T2, Human BCMA on cells (human, UniProt Q02223 1-184).
T2 construct: whole, on cells; also called hBCMA-CHO GS; Human BCMA CHO-S
T2 sequence (looked up): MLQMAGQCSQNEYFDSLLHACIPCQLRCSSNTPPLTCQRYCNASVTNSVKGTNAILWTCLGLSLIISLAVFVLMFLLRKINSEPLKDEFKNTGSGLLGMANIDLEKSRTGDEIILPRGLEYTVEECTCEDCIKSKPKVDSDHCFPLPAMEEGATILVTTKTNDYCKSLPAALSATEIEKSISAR
The test is described as follows: cell binding on H929 cells (human BCMA).

The target of test [3] is T2, Human BCMA on cells. The test is described as follows: cell binding on human BCMA CHO-S cells.
For test [4], the target named is T1, Human BCMA-IHM. The test is described as follows: ForteBio (BLI), IgG, human BCMA-IHM, monovalent.
Test [5] deals with Cynomolgus monkey BCMA-Fc (cynomolgus monkey, UniProt A0A2K5UD97 1-53). Briefly: ForteBio (BLI), IgG, cynomolgus monkey BCMA-Fc, avid. In general terms: BLI is a label-free optical method that tracks binding on a fibre tip over time.
Another test concerns the target T3, ADI-38497 WT antibody.
T3 construct: also called WT BCMA antibody
Briefly: SPR (Biacore T200), avidity format: ADI-38497 WT IgG captured on anti-Fab IgG on an HLC chip, anti-PG scFv fusion protein in the mobile phase. As for the experimental part:
The assay procedure was performed using a 10-fold dilution of 10×HBS-EP+(BR-1006-69, Cytiva) as the experimental buffer. […] A gradient dilution of anti-PG scFv (concentration gradient of 1.25 nM-40 nM, 2-fold dilution) was flowed over the chip surface from low to high concentration in a flow rate of 30 μl/min, with an association time of 180 s and a dissociation time of 300 s. Finally, the chip was regenerated with 10 mM glycine-HCl, pH 1.5 (BR-1003-54, Cytiva).
The data results were analyzed by Biacore T200 analysis software (version 3.1) using a 1:1 binding model.

From US20250041416A1 (Innovent, published 2025) come the findings set out here.

A word on the Kd: it is the constant that tells how readily two partners part at equilibrium.

Chain of Cynomolgus monkey BCMA-Fc (A0A2K5UD97 entry or part of it): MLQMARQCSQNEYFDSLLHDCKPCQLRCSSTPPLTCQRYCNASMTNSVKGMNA

B1: ADI-38497 Fab (Fab, V domains shown)
VH: QLQLQESGPGLVKPSETLSLTCTVSGGSIVSSSYYWTWIRQPPGKGLEWIGSISIAGSTYYNPSLKSRVTISVDTSKNQFSLKLSSVTAADTAVYYCARDRGDQILDVWSQGTMVTVSS
VL: DIQMTQSPSSLSASVGDRVTITCRASQSISRYLNWYQQKPGKAPKLLIYAASSLQSGVPSRFSGSGSGTDFTLTISSLQPEDFATYYCQQKYFDITFGGGTKVEIK
In turn, B1 came in with a Kd with Human BCMA-IHM [1] of 0.104 nM.

B2: ADI-34861 (antibody, V domains shown)
VH: QLQLQESGPGLVKPSETLSLTCTVSGGSISSSSYYWGWIRQPPGKGLEWIGSISYSGSTYYNPSLKSRVTISVDTSKNQFSLKLSSVTAADTAVYYCARDRGDTILDVWGQGTMVTVSS
VL: DIQMTQSPSSLSASVGDRVTITCRASQSISRYLNWYQQKPGKAPKLLIYAASSLQSGVPSRFSGSGSGTDFTLTISSLQPEDFATYYCQQKYFDITFGGGTKVEIK
notes: also called BCMA parent antibody ADI-34861
For the molecule B2, the “Cell Binding, FON (Fold Over Negative)” value in the test with Human BCMA on cells [2] amounted to 6 fold. For the same molecule, the “Cell Binding, FOB (Fold Over Background)” value with Human BCMA on cells [3] turned out to be 4 fold.

B3: ADI-38497 (IgG as tested in Table 2) (antibody, V domains shown)
VH: QLQLQESGPGLVKPSETLSLTCTVSGGSIVSSSYYWTWIRQPPGKGLEWIGSISIAGSTYYNPSLKSRVTISVDTSKNQFSLKLSSVTAADTAVYYCARDRGDQILDVWSQGTMVTVSS
VL: DIQMTQSPSSLSASVGDRVTITCRASQSISRYLNWYQQKPGKAPKLLIYAASSLQSGVPSRFSGSGSGTDFTLTISSLQPEDFATYYCQQKYFDITFGGGTKVEIK
For B3, the “Cell Binding, FON (Fold Over Negative)” value with Human BCMA on cells [2] is 26 fold. Besides, the “Cell Binding, FOB (Fold Over Background)” value with Human BCMA on cells [3] came to 8 fold.

B4: ADI-38484 (IgG as tested in Table 2) (antibody, V domains shown)
VH: QVQLVQSGAEVKKPGSSVKVSCKASGGTFSNDVISWVRQAPGQGLEWMGVIIPIFGIANYAQKFQGRVTITADESTSTAYMELSSLRSEDTAVYYCARGRGYYSSWLHDIWGQGTMVTVSS
VL: DIQMTQSPSSLSASVGDRVTITCQASQDITNYLNWYQQKPGKAPKLLIYDASNLETGVPSRFSGSGSGTDFTFTISSLQPEDIATYYCQQAFDLITFGGGTKVEIK
With B4, in the test with Human BCMA on cells [2], the “Cell Binding, FON (Fold Over Negative)” value is 35 fold. The “Cell Binding, FOB (Fold Over Background)” value with Human BCMA on cells [3] was 11 fold.

B5: ADI-38484 Fab (Fab, V domains shown)
VH: QVQLVQSGAEVKKPGSSVKVSCKASGGTFSNDVISWVRQAPGQGLEWMGVIIPIFGIANYAQKFQGRVTITADESTSTAYMELSSLRSEDTAVYYCARGRGYYSSWLHDIWGQGTMVTVSS
VL: DIQMTQSPSSLSASVGDRVTITCQASQDITNYLNWYQQKPGKAPKLLIYDASNLETGVPSRFSGSGSGTDFTFTISSLQPEDIATYYCQQAFDLITFGGGTKVEIK
In the case of B5, the Kd with Human BCMA-IHM [1] stood at 0.0132 nM.

B6: ADI-34857 (antibody, V domains shown)
VH: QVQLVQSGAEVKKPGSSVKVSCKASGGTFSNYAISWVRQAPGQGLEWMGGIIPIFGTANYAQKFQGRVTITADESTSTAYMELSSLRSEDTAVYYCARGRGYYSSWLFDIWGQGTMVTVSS
VL: DIQMTQSPSSLSASVGDRVTITCQASQDITNYLNWYQQKPGKAPKLLIYDASNLETGVPSRFSGSGSGTDFTFTISSLQPEDIATYYCQQAFDLITFGGGTKVEIK
notes: also called BCMA parent antibody ADI-34857
B6: the Kd in the test with Human BCMA-IHM [4] was found to be 27.7 nM; in test [5] it was 5.93 nM. For the same molecule, in the test with Human BCMA on cells [2], the “Cell Binding, FON (Fold Over Negative)” value turned out to be 5 fold. For the same molecule, the “Cell Binding, FOB (Fold Over Background)” value in the test with Human BCMA on cells [3] came out at 2 fold.

B7: anti-P329G mutation-specific single chain antibody-rabbit Fc fusion protein (Fc fusion)
chain: EVQLVESGGGLVQPGGSLRLSCAASGFTFSRYWMNWVRQAPGKGLEWVGEITPDSSTINYAPSLKGRFTISRDNAKNSLYLQMNSLRAEDTAVYYCARPYDYGAWFASWGQGTLVTVSSGGGGSGGGGSGGGGSGGGGSQAVVTQEPSLTVSPGGTVTLTCRSSTGAVTTSNYANWVQEKPDHLFTGLIGGTNKRAPGTPARFSGSLLGGKAALTLSGAQPEDEAEYYCALWYSNHWVFGGGTKLTVLGGGGSSKPTCPPPELLGGPSVFIFPPKPKDTLMISRTPEVTCVVVDVSQDDPEVQFTWYINNEQVRTARPPLREQQFNSTIRVVSTLPIAHQDWLRGKEFKCKVHNKALPAPIEKTISKARGQPLEPKVYTMGPPREELSSRSVSLTCMINGFYPSDISVEWEKNGKAEDNYKTTPAVLDSDGSYFLYSKLSVPTSEWQRGDVFTCSVMHEALHNHYTQKSISRSPGK
notes: scFv of the P329G CAR extracellular domain fused to rabbit Fc; also called anti-PG scFv fusion protein; anti-PG scFv
As to B7, the binding result in the test with ADI-38497 WT antibody was “no binding”.
